Results on 32 sequences are retold here after the supplement of paper PMC9170038.

The data set has as its system MS2 coat protein. Briefly: apparent KD of MS2 coat protein; designed switch direction (-1 OFF switch, 1 ON switch): -1; higher = weaker reporter binding. In a few lines:
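Three titration conditions were used: no input, 200 uM small-molecule ligand, and an oligonucleotide input. In each, SNAP-549-labelled MS2 coat protein was raised from 0.7 or 1.5 nM, doubling, to 3 µM over designed RNA switches transcribed on Illumina chips by stalled E. coli RNA polymerase. Curve fits of normalised cluster fluorescence gave values whose per-design median over clusters is the apparent KD.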

[1] abbreviates: Eterna round: R95, input ligand: microRNA oligo, concentration not stated.
[2] abbreviates: input ligand: microRNA oligo, concentration not stated.
The mark [3] stands for this setting: Eterna round: R95, input ligand: FMN 200 uM.
The mark [4] stands for this setting: Eterna round: R95, input ligand: none.

As to “CAUAUUCGAGGAUAUGCCUGAUGUCCUUAUGGAGCCCAUUCACAUGAGGAUCACCCAUGUAGAAGGCGGAUGCG [Eternabot (L1) Solution 37] (Eterna round: R97, puzzle: Exclusion 2)”, the “apparent KD of MS2 coat protein” value runs as follows: (input ligand: FMN 200 uM) 31.2 nM; (input ligand: none) 24.8 nM.

Take “CAUGGAACAUAGGAUAUCUCGCGGCUAGGCUGCAGAGAAGGAUGUACAUGAGGAUCACCCAUGUAUGAUCCAAU [Ataratin] (puzzle: Exclusion 6)”: the “apparent KD of MS2 coat protein” value under setting [1] turned out to be 16.3 nM.

Regarding “CAUGGUUAACGAUUAUUCAACAUGAGGAUCACCCAUGUCUCUUUUUCUUUUUGCUCGUCUUAUCCUCCUUUGUUCAC [JR_STOV1_v2_Sub0102] (Eterna round: R97, puzzle: Sensor, turn-off variant 1)”, the “apparent KD of MS2 coat protein” value was 379 nM (input ligand: FMN 200 uM) and 412 nM (input ligand: none).

Consider “CAUGUGUAAGGAUAUGACAAUGGUAUCUUCGGAUACCAUUGUCAGAAGGUACAUGAGGAUCACCCAUGUGGAUC [Ex4-3: 20] (puzzle: Exclusion 4)”, for which the “apparent KD of MS2 coat protein” value under setting [1] came out at 222 nM.

Regarding “CAUUAUUAUCGAGGAUAUCCUAUUGAAAUUCUGGGAGAAGGCGGACUCAACAUGAGGAUCACCCAUGUGGGACGGAUGCUAGGA [salish99_exng1_r04_602] (Eterna round: R96, puzzle: Exclusion NG 1)”, the “apparent KD of MS2 coat protein” value under setting [2] worked out at 13.3 nM.

As to “CAUUAUUAUCGAGGAUAUCGUAUUGAGAUACUAUGAGAAGGCGGGAUAAACAUGAGGAUCACCCAUGUGAGCCUGAUGCUUGUG [Ex NG1 #37] (Eterna round: R96, puzzle: Exclusion NG 1)”, the “apparent KD of MS2 coat protein” value by setting is: (input ligand: FMN 200 uM) 17.4 nM; under setting [2], 14.3 nM; (input ligand: none) 19.3 nM.

On to “CCAACGUGAGGAUAUGCAAUGCUAGCGGGAUCUUCUCUCCAACAUGAGGAUCACCCAUGUAGAAGGCGCUGUUG [Eternabot (L1) Solution 38] (Eterna round: R97, puzzle: Exclusion 2)”, for which the “apparent KD of MS2 coat protein” value was 198 nM (input ligand: FMN 200 uM) and 97.1 nM (input ligand: none).

In the case of “CCAAGCUACUUCAUUAUCCACAUGAGGAUCACCCAUGUCUUGGCAAUUAUGACCUGCCCGUCAGGAGCUCGUCUUAU [Sensor-V1 #39] (Eterna round: R97, puzzle: Sensor, turn-off variant 1)”, the “apparent KD of MS2 coat protein” value runs as follows: (input ligand: FMN 200 uM) 113 nM; (input ligand: none) 55.2 nM.

For the sequence “CCAAGCUUAUUCAUUAACCACAUGAGGAUCACCCAUGUAUAGGCAAUUAUGACUGGGCUCUGUGGUGCUCGUCUUAU [Sensor-V1 #27] (Eterna round: R97, puzzle: Sensor, turn-off variant 1)”, the “apparent KD of MS2 coat protein” value runs as follows: (input ligand: FMN 200 uM) 146 nM; (input ligand: none) 143 nM.

Regarding “CCAAGUCCAUAGGAUAUCGACCAGUCCUCUGGAUGAGAAGGAUGAACUUGAGGAUCACCCAAGUGGCCUAAUAC [Eddilesove] (Eterna round: R97, puzzle: Exclusion 6)”, the “apparent KD of MS2 coat protein” value was determined as 50.1 nM (input ligand: FMN 200 uM) and 23.9 nM (input ligand: none).

Take “CCACGACAUGAGGAUCACCCAUGUGAGGAUAUGGCCUGAAAAGCGUGAGCAGUUUCAAUCAGAAGGCGCGUGGG [salish99_ex1_r4_062] (Eterna round: R97, puzzle: Exclusion 1)”: the “apparent KD of MS2 coat protein” value is, setting by setting: (input ligand: FMN 200 uM) 162 nM; (input ligand: none) 62.2 nM.

For “CCACUGCAUUGCAGUGUCGACAUGAGGAUCACCCAUGUGUCGCAGGCGCCGAGCUUUCCGCUCGUUACGUAUCGACG [Arorin] (Eterna round: R96, puzzle: Sensor v2, turn-off variant)”, the “apparent KD of MS2 coat protein” value was 60.3 nM (input ligand: FMN 200 uM), 42.1 nM under setting [2] and 60.7 nM (input ligand: none).

As to “CCAGCGAGUGUGAGGAUAUGCUGGUCCUUGGAUCAGCAGAAGGCACAUGAGGAUCACCCAUGUGAAAACGUUGG [JL bmx4 3.30] (puzzle: Brourd's mod of Exclusion 4)”, the “apparent KD of MS2 coat protein” value under setting [1] was determined as 21.8 nM.

Regarding “CCAGCGUAUGUGAGGAUAUGCUGGUCCUUGGAUCAGCAGAAGGCACAUGAGGAUCACCCAUGUGGAAACGUUGA [Mod of JL 2 - Jieux - Brourd's mod of Exclusion 4] (Eterna round: R97, puzzle: Brourd's mod of Exclusion 4)”, the “apparent KD of MS2 coat protein” value is 44.9 nM (input ligand: FMN 200 uM) and 19.9 nM (input ligand: none).

For “CCAGGCAAUUCCACUUGUAACAUGAGGAUCACCCAUGUGACCUGGUAUCAAGGCAGCUCGUCAUCCCACCAUAUUCA [Eternabot (L1) Solution 23] (Eterna round: R97, puzzle: Sensor, turn-off variant 1)”, the “apparent KD of MS2 coat protein” value runs as follows: (input ligand: FMN 200 uM) 18.8 nM; (input ligand: none) 18.4 nM.

With “CCAGGCGUCUUUGCUCGUCUUAUUUGGAGAGGACUGAUAACAUGAGGAUCACCCAUGUGUGUGGGAGCGUUGCAGUG [JR_SV3TOV2_Sub020] (puzzle: Sensor v3, turn-off variant 2)”, the “apparent KD of MS2 coat protein” value stood at 86.3 nM under setting [3], 161 nM under setting [1] and 116 nM under setting [4].

Regarding “CCAGGCUGUGUGAGGAUAUGCUGGUCCUUGGAUCAGCAGAAGGCACAUGAGGAUCACCCAUGUGAAGAGCUUGG [JL bmx4 3.23] (puzzle: Brourd's mod of Exclusion 4)”, the “apparent KD of MS2 coat protein” value under setting [1] is 15.6 nM.

As to “CCAGUGUAAGGAUAUCCGUUGCCGGAUAGAUGAUUAACAGCGGAGAAGGUACAUGAGGAUCACCCAUGUGUCCA [Eternabot (L1) Solution 8] (Eterna round: R97, puzzle: Exclusion 4)”, the “apparent KD of MS2 coat protein” value reads like this: (input ligand: FMN 200 uM) 30.9 nM; (input ligand: none) 20.9 nM.

In the case of “CCAUAUAACUGAGGAUAUACGCACCACUAACUAGUAGAAGGCAGACAUGAGGAUCACCCAUGUGAUUUCUCAAUAUUAUACAUC [Prohibition 74 - Jieux - Exclusion NG 1] (Eterna round: R96, puzzle: Exclusion NG 1)”, the “apparent KD of MS2 coat protein” value (input ligand: FMN 200 uM) is 927 nM, the “apparent KD of MS2 coat protein” value under setting [2] came out at 357 nM and the “apparent KD of MS2 coat protein” value (input ligand: none) came out at 775 nM.

As for “CCAUCGAGUGUGAGGAUAUGCUGGUCCUUGGAUCAGCAGAAGGCACAUGAGGAUCACCCAUGUGGAAACGGUGG [Mat - Exclusion 4 - JL Mod - D77] (puzzle: Brourd's mod of Exclusion 4)”, under setting [1], the “apparent KD of MS2 coat protein” value was found to be 27.7 nM.

As for “CCAUGUUAGCAGGAUAUGCAAUAAAUCUUUUAAGCAGAAGGGCUUACAUGAGGAUCACCCAUGUAUAAAGUCAA [JR_E6_Sub079] (puzzle: Exclusion 6)”, the “apparent KD of MS2 coat protein” value under setting [1] was 19.9 nM.

Consider “CCCACAUGAGGAUAUCCAUCUGGAUCAGACAAGAUCCUGAUGGAGAAGGUACAUGAGGAUCACCCAUGUGUGGG [Mat - Exclusion 4 - Eli Mod - D60] (Eterna round: R97, puzzle: Exclusion 4)”, for which the “apparent KD of MS2 coat protein” value is, setting by setting: (input ligand: FMN 200 uM) 189 nM; (input ligand: none) 267 nM.

As for “CCCACCAGAGGAUAUGCGCAUAGAUCAGACUUUGUUUCUGAACAUGAGGAUCACCCAUGUAGAAGGCUGUAACC [Ex2 #87] (Eterna round: R97, puzzle: Exclusion 2)”, the “apparent KD of MS2 coat protein” value runs as follows: (input ligand: FMN 200 uM) 25.2 nM; (input ligand: none) 24.3 nM.

With “CCCAUGUCAGGAUAUCUAAGAGAGGGCCAGCCCUCUCCUCCGGAGAAGGGACAUGAGGAUCACCCAUGUAAAAC [Biedle] (puzzle: Exclusion 4)”, the “apparent KD of MS2 coat protein” value under setting [1] turned out to be 93.3 nM.

Consider “CCCGCGCGUGUAGGAUAUGGCUCGGUGUCUGGGCCAGAAGGACAUGAGGAUCACCCAUGUCUGCGGGUGUGGGCGUGGUUUGGG [-36, -33 kcal A 14%] (Eterna round: R96, puzzle: Exclusion NG 1)”, for which the “apparent KD of MS2 coat protein” value is 91.8 nM (input ligand: FMN 200 uM), 18.6 nM under setting [2] and 27.2 nM (input ligand: none).

For “CCCUCAAGCGAGGAUAUAAAUGCGCAUUCGCGGUUAGAAGGCGCUACAUGAGGAUCACCCAUGUAAUUGAAUGG [jl-ex6-4.52 ViennaUCT mod] (Eterna round: R97, puzzle: Exclusion 6)”, the “apparent KD of MS2 coat protein” value runs as follows: (input ligand: FMN 200 uM) 117 nM; (input ligand: none) 58.7 nM.

For “CCGAAAUCCUAGGAUAUGCUAGACGAAAGUCUAGCAGAAGGAGGAACAUGAGGAUCACCCAUGUGUCCUAUCGG [Mat - Exclusion 6 - Eli Mod - D30] (Eterna round: R97, puzzle: Exclusion 6)”, the “apparent KD of MS2 coat protein” value by setting is: (input ligand: FMN 200 uM) 23.1 nM; (input ligand: none) 15.8 nM.

Regarding “CCGACGUGAGGAUAUCCAUCUGGAUCAGACUAGAUCCUGAUGGAGAAGGCACAUGAGGAUCACCCAUGUUACGG [Eli 4x 4.41] (Eterna round: R97, puzzle: Exclusion 4)”, the “apparent KD of MS2 coat protein” value (input ligand: FMN 200 uM) was found to be 909 nM and the “apparent KD of MS2 coat protein” value (input ligand: none) amounted to 524 nM.

Regarding “CCGACUCAAGGAUAUUGUACUGCUGACAUGAGGAUCACCCAUGUAUGUUAACUCGGCCGACGAGAAGGUGACGACA [BotMod 1 - Jieux - Exclusion 5] (Eterna round: R97, puzzle: Exclusion 5)”, the “apparent KD of MS2 coat protein” value turned out to be 39.6 nM (input ligand: FMN 200 uM) and 43.1 nM (input ligand: none).

“CCGAGGUAGCGGUCCUAUGACAUGAGGAUCACCCAUGUACCUCGCUACGAGCUUUUUGCUCGUCUUAUAAUUCUCGG [JL Atriat mod 1] (puzzle: Sensor v3, turn-off variant 1)”: the “apparent KD of MS2 coat protein” value was 55.2 nM under setting [3], 229 nM under setting [1] and 73.6 nM under setting [4].

Regarding “CCGCAACAUGAGGAUCACCCAUGUCAGGAUAUCGUACGUUCGUCGAAAGACGAUCGUACGAGAAGGGUGUGCGG [Eli x1 4.36] (Eterna round: R97, puzzle: Exclusion 1)”, the “apparent KD of MS2 coat protein” value by setting is: (input ligand: FMN 200 uM) 79.8 nM; (input ligand: none) 110 nM.

In the case of “CCGCAUAAGCAGGAUAUCGUAUCGGAAACGAUACGAGAAGGGUUAACAUGAGGAUCACCCAUGUUCCUUAACGG [Fiskers Ex 6 - 30] (puzzle: Exclusion 6)”, the “apparent KD of MS2 coat protein” value under setting [1] came out at 17.5 nM.
